According to patent publication US6551840B2, “Method of screening TGF-β-inhibiting substances” (Chugai Seiyaku Kabushiki Kaisha, priority 1997, dated 2003):

Columns and labels:
Assay type in all cases: cell-based
[1] = biological target: T1, TAB1 (Homo sapiens, UniProt Q15750); assay: Animal cell 2-hybrid system in CHO cells, luciferase activity; conditions: 72 hours after gene introduction, similar to pM-TAK1 and pVP16-C68
T1 construct: expressed in transfected cells; host or cells: CHO cells
T1 sequence (Q15750 437-504): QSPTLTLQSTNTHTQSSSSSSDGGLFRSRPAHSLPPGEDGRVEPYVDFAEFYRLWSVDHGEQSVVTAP
Procedure: It was analyzed whether a polypeptide (TAK1-DN) comprising Glu at position 77 to Gln at position 303 of the TAK1 polypeptide as set forth in SEQ ID NO: 4 inhibits binding between the TAK1 polypeptide and the TAB1 polypeptide and whether it can inhibit the activation of the TAK1 polypeptide in animal cells by an animal cell 2-hybrid system (Dang et al., (1991) Mol. Cell. Biol. 11, 954-962) using the TAB1 polypeptide and the TAK1 polypeptide.
First, a gene encoding a full-length TAK1 and TAK1-DN and a gene encoding the GAL4 DNA-binding domain (GAL4-BD) were ligated to construct an expression vector. A gene encoding a full-length TAK1 was prepared by digesting yeast 2-hybrid expression plasmid pBTMHu11F (Shibuya H. et al., (1996) 272, 1179-1182) with restriction enzymes EcoRI and PstI, and was then linked to the EcoRI/Pst site of an expression vector pM (manufactured by CLONTECH) containing the GAL4-BD gene, which was termed an animal cell 2-hybrid expression plasmid pM-TAK1. […]
After further incubating for 72 hours, luciferase activity in each cell extract was determined using the Dual-LuciferaseTM Assay System (manufactured by Promega). […] The efficiency of gene introduction was corrected with the measured value of luciferase activity of Renilla by pRL-SV40.

[2] = test system: mouse kidney mesangial cell line SV40MES13; assay: Fibronectin EIA in SV40MES13 cells expressing TAK1-DN with or without TGF-β; conditions: 2.5 ng/ml TGF-β, 24 hours; for increase of fibronectin in the culture supernatant by TGF-β addition: control MES/NEO about 3.3 fold; for increase of fibronectin in the extracellular matrix extract by TGF-β addition: control MES/NEO about 3.8 fold
From the text: (§1) Then, pTAK1DN or pCOS1 that contains no inserted genes as a control vector was linearized by digesting with a restriction enzyme PvuI. These linearized vectors were introduced by electroporation into human fibroblast-derived HT-1080 (ATCC CCL 121), a mouse kidney mesangial cell line SV40MES13 (ATCC CRL 1927), and a mink pulmonary epithelial cell line Mv1Lu (ATCC CCL 64), and cells into which the gene was introduced were selected using G418 (manufactured by GIBCO-BRL).
The mouse mesangial cell line SV40MES13 (MES/DN3 and MES/DN6) into which pTAK1DN had been introduced and the control cells (MES/NEO) into which pCOS1 containing no inserted genes had been introduced were incubated in a low-serum medium (Medium 199 containing 0.2% FBS) with or without 2.5 ng/ml TGF-β for 24 hours. The amount of fibronectin in the culture supernatant or the extracellular matrix extract prepared using 1 M urea solution was determined by the EIA method as described in Example 7.

[3] = test system: human fibroblast-derived HT-1080; assay: Fibronectin EIA in HT-1080 cells expressing TAK1-DN with or without TGF-β; conditions: 1 ng/ml TGF-β, 24 hours; for increase of fibronectin in the culture supernatant by TGF-β addition: control HT/NEO about 6.1 fold; for increase of fibronectin in the extracellular matrix extract by TGF-β addition: control HT/NEO about 11.4 fold
From the text: as §1
The human fibroblast-derived HT-1080 cells (HT/DN2 and HT/DN14) into which pTAK1DN had been introduced and the control cells (HT/NEO) into which pCOS1 containing no inserted genes had been introduced were incubated in a low-serum medium (Medium 199 containing 0.2% FBS; manufactured by GIBCO BRL) with or without 1 ng/ml TGF-β (manufactured by King Jozo) for 24 hours. The amount of fibronectin in the culture supernatant or the extracellular matrix extract prepared using 1 M urea solution (1 M urea, 1 mM DTT, 10 mM Tris-HCl, pH 7.4, 10 mM EDTA, Protease inhibitor cocktail (CompleteTM, manufactured by Boehringer-Mannheim)) was determined by the EIA method.
Thus, 100 μl of the culture supernatant or the extracellular matrix extract prepared using 1 M urea solution was added to a 96-well microtiter plate (manufactured by Nunc), and the plate was incubated overnight at 4° C. After washing, it was blocked using a 1% BSA solution (50 mM Tris-HCl, pH 8.0, 1 mM MgCl2, 150 mM NaCl, 0.05% Tween 20, 0.02% sodium azide), and then 10000 fold-diluted rabbit anti-human fibronectin antibody (manufactured by CALBIOCHEM) was added to the above 1% BSA solution, and was further incubated at room temperature for 2 hours.
After washing, alkaline phosphatase-labeled goat anti-rabbit Ig antibody (manufactured by TAGO) was added, and was further incubated at room temperature for one hour. Then the substrate solution (p-nitrophenyl phosphate; manufactured by Sigma) was added and absorbance at […] was measured. As a standard, human fibronectin (manufactured by Cappel) was used.

binding to TAB1: luciferase activity for pM-TAK1DN and pVP16-C68 [1]: binds to TAB1
B1: TAK1-DN: polypeptide of Glu at position 77 to Gln at position 303 of TAK1 (SEQ ID NO: 4), the TAB1 binding site; dominant negative inhibitor (protein)
chain: ELRQLSRVNHPNIVKLYGACLNPVCLVMEYAEGGSLYNVLHGAEPLPYYTAAHAMSWCLQCSQGVAYLHSMQPKALIHRDLKPPNLLLVAGGTVLKICDFGTACDIQTHMTNNKGSAAWMAPEVFEGSNYSEKCDVFSWGIILWEVITRRKPFDEIGGPAFRIMWAVHNGTRPPLIKNLPKPIESLMTRCWSKDPSQRPSMEEIVKIMTHLMRYFPGADEPLQYPCQ
increase of fibronectin in the culture supernatant by TGF-β addition ([2]; MED/DN3 cells): about 2.4 fold
increase of fibronectin in the extracellular matrix extract by TGF-β addition ([2]; MED/DN3 cells): about 2.6 fold
increase of fibronectin in the culture supernatant by TGF-β addition ([2]; MES/DN6 cells): ~2.3 fold
increase of fibronectin in the extracellular matrix extract by TGF-β addition ([2]; MES/DN6 cells): ~2.1 fold
increase of fibronectin in the culture supernatant by TGF-β addition ([3]; HT/DN2 cells): about 2.6 fold
increase of fibronectin in the extracellular matrix extract by TGF-β addition ([3]; HT/DN2 cells): about 3.5 fold
increase of fibronectin in the culture supernatant by TGF-β addition ([3]; HT/DN14 cells): ~3.0 fold
increase of fibronectin in the extracellular matrix extract by TGF-β addition ([3]; HT/DN14 cells): ~3.6 fold
